Assay results as given in US12703730B2, “Long-acting conjugates of GLP-2 derivatives” (HANMI PHARM. CO., LTD., priority 2017, dated 2026).
Values belong to the compound of their own block, whether it stands above or below them. Square brackets hold non-standard residues; d marks the D form. Side chains are listed from the residue outwards. Ends that are not written are not given here. * marks the point of attachment. Acetyl(2-(4-imidazolyl)) = O=C(Cc1c[nH]cn1)*

Legend:
human GLP-2 receptor = target: T1, human GLP-2 receptor (Homo sapiens, UniProt O95838); assay: In vitro activity: cAMP accumulation (LANCE cAMP kit) in CHO-K1 cells expressing human GLP-2 receptor; type: cell-based; details: for In vitro activity compared to human GLP-2 (%) (relative titer), GLP-2 derivative: GLP-2 derivative / Teduglutide
T1 construct: host or cells: CHO-K1
T1 sequence (O95838 1-553): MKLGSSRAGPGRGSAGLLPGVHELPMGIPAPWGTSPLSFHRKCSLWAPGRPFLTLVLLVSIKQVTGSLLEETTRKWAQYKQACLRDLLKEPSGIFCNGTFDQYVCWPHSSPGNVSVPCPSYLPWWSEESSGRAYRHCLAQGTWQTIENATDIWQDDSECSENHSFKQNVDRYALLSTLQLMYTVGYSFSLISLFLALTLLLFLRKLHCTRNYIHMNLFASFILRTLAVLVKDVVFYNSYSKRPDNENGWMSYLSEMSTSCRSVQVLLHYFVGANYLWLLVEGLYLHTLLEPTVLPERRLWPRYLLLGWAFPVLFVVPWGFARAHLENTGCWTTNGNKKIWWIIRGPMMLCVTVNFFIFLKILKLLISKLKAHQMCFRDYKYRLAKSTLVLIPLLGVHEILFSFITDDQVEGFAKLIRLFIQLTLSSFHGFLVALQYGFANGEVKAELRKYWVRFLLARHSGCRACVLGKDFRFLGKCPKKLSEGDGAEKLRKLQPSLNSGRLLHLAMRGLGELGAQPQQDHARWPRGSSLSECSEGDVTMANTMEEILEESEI
Text: In order to measure the activities of the GLP-2 derivatives and the long-acting conjugates of GLP-2 derivatives, which had been obtained in the previous Examples, a cell line in which a GLP-2 receptor is transformed was used to measure the cell activity in vitro. The cell line is one that has been transformed to express a human GLP-2 receptor in Chinese hamster ovary (CHO)—K1, and thus is suitable for measuring the activity of GLP-2 (DiscoverX, U.S.A.).
In order to measure the activities of the GLP-2 derivatives and the long-acting conjugates thereof, human GLP-2 and Teduglutide (Gattex®, Shire) were subjected to a 3-fold serial dilution from 166.7 nM to 0.0028 nM; the GLP-2 derivatives were subjected to a 3-fold serial dilution from 500 nM to 0.0085 nM; and the long-acting conjugates of GLP-2 derivatives were subjected to a 3-fold serial dilution from 3000 nM to 0.0508 nM. The culture solution was removed from the cultured CHO-K1 cells, in which the human GLP-2 receptor is expressed, and then each of the serially diluted material was added to the cells in an amount of 5 μL, respectively. Thereafter, the buffer (5 μL) containing a cAMP antibody was added and then the cultivation was conducted at room temperature for 15 minutes. Then, a detection mix (10 μL) containing a cell lysis buffer was added thereto to dissolve the cells and reacted at room temperature for 60 minutes. The cell lysates, upon completion of the reaction, were applied to a LANCE cAMP kit (PerkinElmer, U.S.A.) to calculate the EC50 value via accumulated cAMP, and the values were compared with one another.

in vivo = details: SD, rat, sc, 2.5 mg/kg
Procedure: (§1) 8-week-old normal rates were divided into a group administering Teduglutide (2.5 mg/kg) and a group administering the long-acting conjugate of CA GLP-2 RK (3.4K PEG) derivative (0.705 mg/kg). The test materials were subcutaneously injected once into the normal rats in each group (3 rats/group). Thereafter, whole blood was obtained by collecting blood samples from the coccygeal vein at 0.25, 0.5, 1, 1.5, 2, 3, 4, 6, 8, and 24 hours for the group administering Teduglutide; and at 4, 8, 24, 48, 72, 96, 120, 144, 168, 192, 216, 240, 264, 288, 312, and 336 hours for the group administering the long-acting conjugate of CA GLP-2 RK derivative. The whole blood was placed in a 1.5 mL microtube, centrifuged at room temperature at 5,000 rpm for 10 minutes, and then sera were separated and stored at −20° C. Concentrations of the stored sera from each group were quantified using an ELISA analysis method. For Teduglutide, a GLP-2 ELISA Kit (Alpco, #48-GP2HU-E01.1) was used. For the long-acting conjugate of CA GLP-2 RK derivative, a biotin-labeled GLP-2 polyclonal antibody (Phoenix Pharmaceuticals, #B-028-14) was bound to a plate coated with Streptavidin (Roche, #11645692001), and then reacted with the serum for 1 hour. After washing, anti-human IgG4-HPR (Alpha Diagnosis, #10124) was added thereto and allowed to react at room temperature for 1 hour. Thereafter, the resultants were subjected to a color reaction using a TMB reagent, and the absorbance was measured at a wavelength of 450 nm. Pharmacokinetic parameters thereof were calculated using the serum concentrations.

C57BL/6 mice = assay: Effect of increasing in vivo intestinal weight in normal mice (Example 7); details: 13 days, Teduglutide 7.5 & 15 nmol/kg/BID, conjugate 4.15, 7.5, 15, 30 nmol/kg/Q2D
Procedure: Five mice were placed in each group and autopsied after 13 days of the administrations. The small intestines were perfused, and the weight of the small intestines and the length of the villi within the small intestines were measured.

[1] = Comparison of pharmacokinetics between long-acting conjugate of GLP-2 derivative and Teduglutide in SD rat (Example 6); details: serum, sc, 2.5 mg/kg
Procedure: as §1

[2] = inactivation by DPP IV; Bolette H. et al. 2000; cited from earlier work
[3] = Pharmacokinetics of long-acting conjugates of GLP-2 derivatives in SD rat (Example 5); type: in vivo; details: normal SD rats, single subcutaneous injection 2.52 mg/kg, serum, ELISA
Procedure: The pharmacokinetics of the long-acting conjugates of GLP-2 derivatives were compared in normal rats.
Pharmacokinetic parameters thereof were calculated using the serum concentrations.

[4] = relative titer from cAMP EC50, CHO-K1 cells expressing human GLP-2 receptor

Compound: CC[C@H](C)[C@H](NC(=O)[C@H](Cc1ccccc1)NC(=O)[C@H](CC(=O)O)NC(=O)[C@H](CCCNC(=N)N)NC(=O)[C@H](C)NC(=O)[C@H](C)NC(=O)[C@H](CC(C)C)NC(=O)[C@H](CC(N)=O)NC(=O)[C@H](CC(=O)O)NC(=O)[C@H](CC(C)C)NC(=O)[C@@H](NC(=O)[C@@H](NC(=O)[C@H](CC(N)=O)NC(=O)[C@H](CCSC)NC(=O)[C@H](CCC(=O)O)NC(=O)[C@H](CC(=O)O)NC(=O)[C@H](CO)NC(=O)[C@H](Cc1ccccc1)NC(=O)[C@H](CO)NC(=O)CNC(=O)[C@H](CC(=O)O)NC(=O)CNC(=O)[C@@H](N)Cc1c[nH]cn1)[C@@H](C)O)[C@@H](C)CC)C(=O)N[C@@H](CC(N)=O)C(=O)N[C@@H](Cc1c[nH]c2ccccc12)C(=O)N[C@@H](CC(C)C)C(=O)N[C@H](C(=O)N[C@@H](CCC(N)=O)C(=O)N[C@H](C(=O)N[C@@H](CCCCN)C(=O)N[C@H](C(=O)N[C@H](C(=O)N[C@@H](CC(=O)O)C(=O)O)[C@@H](C)O)[C@@H](C)CC)[C@@H](C)O)[C@@H](C)CC [Teduglutide]
In vitro activity compared to human GLP-2 (%) (relative titer), GLP-2 derivative (human GLP-2 receptor; [4]): 147.5%
AUC(0-t) (in vivo): 2600 ± 581 ng·h/mL
Cmax (in vivo): 1680 ± 744 ng/mL
MRT last (in vivo): 1.4 ± 0.1 h
Tmax (in vivo): 42 ± 18 min
length of the villi within the small intestines (C57BL/6 mice): increase in the length of the villi
weight of the small intestines (C57BL/6 mice): increased in a dose-dependent manner
half-life [1]: 36 ± 6 min

Compound: CA GLP-2 KK: GLP-2 derivative SEQ ID NO: 3: X1 imidazoacetyldeshistidine, X2 glycine, X30 lysine, X34 lysine (XGDGSFSDEMNTILDNLAARDFINWLIQTKITDK; X1 imidazoacetyldeshistidine; GLP-2 derivative; (1) Xaa is imidazoacetyldeshistidine)
In vitro activity compared to human GLP-2 (%) (relative titer), GLP-2 derivative (human GLP-2 receptor; [4]): 205.6%

Compound: Glucagon-like peptide-2 [GLP-2]
in vivo half-life [2]: ≤ 7 min

The next lines start with results.

In vitro activity compared to human GLP-2 (%) (relative titer), GLP-2 derivative (human GLP-2 receptor; [4]): 149.3%
Compound: CA GLP-2 KC: GLP-2 derivative SEQ ID NO: 2: X1 imidazoacetyldeshistidine, X2 glycine, X30 lysine, X34 cysteine (XGDGSFSDEMNTILDNLAARDFINWLIQTKITDC; X1 imidazoacetyldeshistidine; GLP-2 derivative; (1) Xaa is imidazoacetyldeshistidine)

In vitro activity compared to human GLP-2 (%) (relative titer), GLP-2 derivative (human GLP-2 receptor; [4]): 333.2%
Compound: CA GLP-2 RK: GLP-2 derivative SEQ ID NO: 4: X1 imidazoacetyldeshistidine, X2 glycine, X30 arginine, X34 lysine ([Acetyl(2-(4-imidazolyl))]GDGSFSDEMNTILDNLAARDFINWLIQTRITDK)

In vitro activity compared to human GLP-2 (%) (relative titer), conjugate of GLP-2 derivative (human GLP-2 receptor; relative titer from cAMP EC50, CHO-K1 cells expressing human GLP-2 receptor, long-acting conjugates): 46.0%
Compound: Long-acting conjugate of CA GLP-2 RC (10K PEG) derivative: CA-GLP-2 RC covalently linked to the immunoglobulin Fc by 10 kDa PEG at the 34th cysteine ([Acetyl(2-(4-imidazolyl))]GDGSFSDEMNTILDNLAARDFINWLIQTRITDC([PEG 10 kDa-immunoglobulin Fc]); also: Cys34 linked via 10 kDa PEG to immunoglobulin Fc)
Activation of the GLP-2 receptor / relative potency (in words) (human GLP-2 receptor; CHO-K1 cells expressing human GLP-2 receptor, cAMP): higher activities compared to the long-acting conjugate of GLP-2 derivative (CA GLP-2 KC)
AUClast [3]: 1384.9499 ± 186.8176 µg·h/mL
Cmax [3]: 13350.4 ± 3611.4 ng/mL
MRTlast [3]: 88.9 ± 9.4 h
T1/2 [3]: 54.4 ± 6.9 h
Tmax [3]: 26.7 ± 20.1 h
